Data: publication PMC7194921

Molecular target: SARS-CoV-2 N-NTD (WT) (SARS-CoV-2, UniProt P0DTC9 41-174)
Assay: SPR

B1: viral RNA derived intergenic sequence (ssRNA)
RNA: AAGUUCGUUU
  Kd: 140 µM
